Test results reported in publication PMC4067742, “Direct Observations of Amyloid β Self-Assembly in Live Cells Provide Insights into Differences in the Kinetics of Aβ(1–40) and Aβ(1–42) Aggregation” (Chemistry & Biology, 2014).

What was measured:
[1] = Fluorescence lifetime imaging (FLIM) of amyloid fibril formation in vitro; format: physicochemical; settings: for fluorescence lifetime of larger aggregates deposited on the coverslip: FLIM, 'often in the range of'; for mean fluorescence lifetime, monomeric peptide: beginning of time course / before trypsin
Description: We first examined whether a Hilyte Fluor 488 (HF488) dye attached to the N termini of Aβ(1–40) and Aβ(1–42) could act as a reporter of amyloid formation by monitoring how the fluorescence intensity of the dye changes as fibril formation occurs in vitro for each of the two Aβ isoforms. The appearance of fibrillar species was identified by means of dot blot experiments using the conformation-specific antibody LOC ([Kayed et al., 2007]), and the HF488 fluorescence intensity was measured in parallel (Figure 1A; Figure S1 available online). […] This small difference, however, could result from the fact that LOC recognizes fibrillar oligomers as well as amyloid fibrils, whereas the fluorescence quenching is likely to be associated predominately with amyloid fibrils. We also confirmed the formation of β sheet structure by measurement of circular dichroism spectra at the beginning and end of the time course of the experiment (Figure 1B). Next, we used FLIM to analyze these samples collected at the beginning and end of the time course of the experiment. The fluorescence lifetimes in each pixel of these images were obtained by fitting monoexponential decay functions to the observed time-resolved fluorescence decays, and the data and images are shown in Figures 1C and 1D.
All in vitro experiments were performed at a peptide concentration of 5 μM in 50 mM sodium phosphate buffer at pH 7.4. Aggregation kinetics were monitored by steady-state fluorescence in a FLUOstar Optima microplate reader (BMG Labtech) and sealed black Costar half-area, 96-well plates (Corning Life Sciences). Data were recorded at 5-min intervals using a 480-nm bandpass filter for excitation and a 520-nm bandpass filter for emission. Orbital shaking (300 rpm, 10 s) was carried out prior to each recording to ensure that each sample was homogenous. Sample aliquots for dot blot analysis were taken at the indicated time points and immediately flash-frozen in liquid nitrogen. These aliquots were thawed by dilution into phosphate buffer to a total volume of 25 μl and immediately blotted onto a nitrocellulose membrane using a Bio-Rad dot blot apparatus. The membrane was blocked with 5% (w/v) dry milk and 0.1% Triton X-100 in PBS and stained with LOC as the primary antibody and an Alexa Fluor 647-labeled anti-rabbit antibody as the secondary antibody (Life Technologies). The blots were imaged on a Typhoon 9400 scanner (GE Healthcare) using the 633-nm laser line for excitation. Densitometric analysis of the blots was carried out using ImageJ. ([Schneider et al., 2012]). Aβ samples for in vitro fluorescence lifetime imaging were placed in a glass-bottomed tissue culture dish (MatTek) and sealed with a coverslip and nail varnish to avoid evaporation.
All FLIM experiments were carried out using HF488-labeled Aβ peptides, and images were recorded by time-correlated single photon counting (TCSPC) using a confocal microscopy platform built on an Olympus Fluoview FV300 confocal scan unit. A pulsed supercontinuum source (SC 450, Fianium) was used for excitation, emitting a train of sub-10-picosecond pulses at 40 MHz repetition rate. The output beam was collimated and passed through a hot mirror assembly to remove infrared components at wavelengths greater than 700 nm. The visible portion of the spectrum was passed through an acousto-optic tunable filter (AOTFnC-VIS, AA Opto-Electronic) whose radio frequency modulator was driven by software developed using LabVIEW (National Instruments). The excitation wavelength was set to 480 nm. The excitation beam was reflected onto the sample with a 20/80 broad bandwidth coated beam splitter so that 20% of the excitation light passed on to the sample and 80% of the fluorescence signal was reflected toward the confocal pinhole. The fluorescence light was passed through a 515-nm Semrock long-pass filter (Laser 2000) and passed onto a fast photomultiplier tube (PMC-100, Becker & Hickl). Lifetimes were recorded using TCSPC circuitry (SPC-830, Becker & Hickl). […]

trypsin = assay: Fluorescence lifetime after trypsin treatment of the labeled peptide; format: physicochemical; settings: trypsin-treated monomeric peptide, cleavage into short fragments; FLIM; mean ± SD
From the text: For the HF488 dye to function as a direct reporter of amyloid formation in vivo, its fluorescence lifetime must respond to the conformational changes associated with amyloid formation but remain largely unaffected by extrinsic factors, such as the solution conditions that the Aβ peptides may encounter in the living cell. […] That is, it is insensitive to pH changes in this range. […] Furthermore, the fluorescence lifetime of the unconjugated HF488 dye (4.0 ± 0.1 ns) is longer than that of the Aβ-conjugated dye (3.7 ± 0.05 ns), perhaps as a result of interactions between the dye and the polypeptide chain in the latter case ([Chen et al., 2010]). […]
All FLIM experiments were carried out using HF488-labeled Aβ peptides, and images were recorded by time-correlated single photon counting (TCSPC) using a confocal microscopy platform built on an Olympus Fluoview FV300 confocal scan unit. […] The excitation beam was reflected onto the sample with a 20/80 broad bandwidth coated beam splitter so that 20% of the excitation light passed on to the sample and 80% of the fluorescence signal was reflected toward the confocal pinhole. The fluorescence light was passed through a 515-nm Semrock long-pass filter (Laser 2000) and passed onto a fast photomultiplier tube (PMC-100, Becker & Hickl). Lifetimes were recorded using TCSPC circuitry (SPC-830, Becker & Hickl). […]

[2] = 5 μM peptide in 50 mM sodium phosphate buffer pH 7.4
[3] = 5 μM peptide in 50 mM sodium phosphate buffer pH 7.4, FLIM (TCSPC), monoexponential fit, mean ± SD

## ^HF488Aβ(1–40): Synthetic 40-residue amyloid β peptide labeled at the N terminus with Hilyte Fluor 488, purchased from Anaspec
[1]; 5 μM peptide in 50 mM sodium phosphate buffer pH 7.4, droplet on FLIM microscope stage, sigmoidal decrease (Figure S2A)
  lag phase of fibril formation in vitro (decrease in fluorescence lifetime): approximately 2.5 hr
[1]; [2]
  fluorescence lifetime of larger aggregates deposited on the coverslip: 2.5–3.0 ns
[1]; [3]
  mean fluorescence lifetime, monomeric peptide: 3.7 ± 0.1 ns
trypsin
  mean fluorescence lifetime after trypsin treatment: 4.0 ± 0.1 ns

## ^HF488Aβ(1–42): Synthetic 42-residue amyloid β peptide labeled at the N terminus with Hilyte Fluor 488, purchased from Anaspec
[1]; [2]
  fluorescence lifetime of larger aggregates deposited on the coverslip: 2.5–3.0 ns
[1]; [3]
  mean fluorescence lifetime, monomeric peptide: 3.7 ± 0.05 ns
[1]; aggregation read-out, 5 μM peptide in 50 mM sodium phosphate buffer pH 7.4, end of time course, FLIM (TCSPC), monoexponential fit, mean ± SD
  mean fluorescence lifetime, solutions containing fibrillar peptide: 3.3 ± 0.1 ns
